# Data: patent publication US20100267609
# T1: substrate EVNLAVEFWHDR
# T1 chain: EVNLAVEFWHDR
# T2: substrate RWHHEVNLAAEF
# T2 chain: RWHHEVNLAAEF
# T3: substrate EEISEVNLAAEF
# T3 chain: EEISEVNLAAEF
# B1: memapsin 2 (spontaneously activated promemapsin 2-T1; amino acids 43-456 and 45-456 of SEQ ID NO: 8) (protein)
# chain: LRLPRETDEEPEEPGRRGSFVEMVDNLRGKSGQGYYVEMTVGSPPQTLNILVDTGSSNFAVGAAPHPFLHRYYQRQLSSTYRDLRKGVYVPYTQGKWEGELGTDLVSIPHGPNVTVRANIAAITESDKFFINGSNWEGILGLAYAEIARPDDSLEPFFDSLVKQTHVPNLFSLGLCGAGFPLNQSEVLASVGGSMIIGGIDHSLYTGSLWYTPIRREWYYEVIIVRVEINGQDLKMDCKEYNYDKSIVDSGTTNLRLPKKVFEAAVKSIKAASSTEKFPDGFWLGEQLVCWQAGTTPWNIFPVISLYLMGEVTNQSFRITILPQQYLRPVEDVATSQDDCYKFAISQSSTGTVMGAVIMEGFYVVFDRARKRIGFAVSACHVHDEFRTAAVEGPFVTLDMEDCGYNIPQTDEST
# Columns and labels:
# substrate EVNLAVEFWHDR = biological target: T1, substrate EVNLAVEFWHDR
# substrate RWHHEVNLAAEF = biological target: T2, substrate RWHHEVNLAAEF
# substrate EEISEVNLAAEF = biological target: T3, substrate EEISEVNLAAEF
protein,measurement,setting,value
B1,Km,substrate EVNLAVEFWHDR,Km of 83±8.9 mM
same,"rate of catalysis, competitive cleavage of a mixture of three peptides (MALDI-TOF)",substrate RWHHEVNLAAEF,the RWHH (SEQ ID NO: 53) sequence addition still demonstrated a 60-fold decrease in catalytic rate
same,"rate of catalysis, competitive cleavage of a mixture of two peptides (MALDI-TOF), against EVNLAAEFWHDR",substrate RWHHEVNLAAEF,a 60-fold decrease in the rate of catalysis for the upstream RWHH (SEQ ID NO: 53) sequence addition when compared to the downstream WHDR (SEQ ID NO: 29) sequence addition
same,"rate of catalysis, competitive cleavage of a mixture of three peptides (MALDI-TOF)",substrate EEISEVNLAAEF,statistically identical rates of catalysis for the upstream EEIS (SEQ ID NO: 52) and the downstream WHDR (SEQ ID NO: 29) sequence additions
